Results taken from paper PMC9098913, “In vitro reconstitution of Escherichia coli divisome activation” (Nature Communications, 2022).
Read-outs that look alike come from different tables or passages of the source.

Tests used:
FtsZ = details: His-tagged FtsA
Procedure: Co-treadmilling of FtsA with FtsZ relies on the dynamic exchange of FtsA on the membrane. […] To investigate the respective contributions of membrane binding kinetics and FtsA self-interaction on the colocalization dynamics with FtsZ, we wanted to create variants of the two FtsA proteins that are permanently attached to the membrane. […] Accordingly, in these experiments the proteins only differ in their tendency to form oligomers.
To study colocalization of His-tagged variants of FtsA, 0.5–1 µM of Cy5 labelled His-tagged FtsAs were added to the chamber, incubated for 20 min and washed 6x with reaction buffer. […] To control the density of membrane-bound FtsA, SUVs without and with Tris-NTA lipids were mixed to obtain the respective Tris-NTA concentrations. To perform FRET/FRAP experiments, equimolar concentrations of Cy3 and Cy5 labelled His-tagged FtsAs (total 0.5–1 µM) or His-SUMO-Cys were added to a chamber and treated as above. […] FRAP experiments were performed as described before.
Treadmilling dynamics, were quantified using an automated image analysis protocol previously developed by our group. To visualize colocalization of the co-treadmilling FtsZ & FtsA filaments, we used dual-colour videos obtained at an acquisition rate of one frame per 2 s. The two channels were aligned using FIJI’s 3TP align plugin. Both channels were then subjected to the image subtraction protocol and colocalization was measured as described above.

[1] = Membrane off-binding rate (koff) of FtsA from FRAP
Source text: We could also use the data from these bleaching experiments to quantify the membrane-binding kinetics and diffusion of membrane-bound proteins by analysing the change of the fluorescence profile during recovery.
Equimolar concentrations of Cy3- and Cy5-labelled FtsA, supplemented with 20% unlabelled FtsA were used to study FRET and FRAP. Five pre-bleach frames were acquired, followed by acceptor photobleaching of a rectangular ROI with 40% 641 nm laser power and a dwell size of 1 µs/pixel, 75% overlapping lines. The recovery of the signal or the increase in donor intensity were measured with either two frames or one frame per second.
Bleaching the acceptor dye leads to an increase in the donor intensity, which can be used to quantify the Foerster Resonance energy transfer (FRET)[48]. FRET efficiency was quantified with E%=Ipost/Ipost+Ipre⋅100 , where Ipost is the intensity of the […] and Ipre is the […]. […] To extract the contribution of both processes, we adjusted a routine recently published by Gerganova et al.[33]. In short, the code provides the contribution of both modes of recovery by analysing the shape of the fluorescence recovery profile. […] Contribution of diffusion leads to a change of the slope of the outer borders of the bleached region (S4h right). Thus, by measuring the change of the slope of the border recovery, diffusion and simple on/off binding can be distinguished. We developed “FRAPdiff”, a graphical user interface, which uses the original fit routine by David Rutkowski. It can be used directly on.tiff movies with annotated bleach regions as ImageJ ROIs. In addition, we added optional bleach correction, user selectable projection axis (x or y), and optional mirroring of the recovery profiles, if bleaching was not symmetric. The original fit routine for estimating the recovery and diffusion dynamics can be found at https://github.com/davidmrutkowski/1DReflectingDiffusion. FRAPdiff is available at 10.5281/zenodo.6400639[49] under the GPLv3 open-source license.

B1: FtsA R286W (protein)
chain: MIKATDRKLVVGLEIGTAKVAALVGEVLPDGMVNIIGVGSCPSRGMDKGGVNDLESVVKCVQRAIDQAELMADCQISSVYLALSGKHISCQNEIGMVPISEEEVTQEDVENVVHTAKSVRVRDEHRVLHVIPQEYAIDYQEGIKNPVGLSGVRMQAKVHLITCHNDMAKNIVKAVERCGLKVDQLIFAGLASSYSVLTEDERELGVCVVDIGGGTMDIAVYTGGALRHTKVIPYAGNVVTSDIAYAFGTPPSDAEAIKVRHGCALGSIVGKDESVEVPSVGGRPPWSLQRQTLAEVIEPRYTELLNLVNEEILQLQEKLRQQGVKHHLAAGIVLTGGAAQIEGLAACAQRVFHTQVRIGAPLNITGLTDYAQEPYYSTAVGLLHYGKESHLNGEAEVEKRVTASVGSWIKRLNSWLRKEF
modifications: Cy3 or Cy5 at the N-terminus in the labelled form (labelled CLEPTGG peptide conjugated to the 5xGly tag by sortagging); unlabelled protein also used; left off: TwinStrep-SUMO, N-terminal, cleaved | 5x
FtsZ; 0.60% Tris NTA, Exp. 1 (statistical analysis)
  Differential PCC: 0.40
FtsZ; 0.60% Tris NTA, Exp. 2 (statistical analysis)
  Differential PCC: 0.46
FtsZ; 0.60% Tris NTA, Exp. 3 (statistical analysis)
  Differential PCC: 0.54
FtsZ; 0.60% Tris NTA, n = 2 (WT), 3 (R286W), sd 0.02, 0.057, p-value 0.67
  Differential PCC, Mean: 0.47
FtsZ; 0.80% Tris NTA, Exp. 1 (statistical analysis)
  Differential PCC: 0.57
FtsZ; 0.80% Tris NTA, Exp. 2 (statistical analysis)
  Differential PCC: 0.48
FtsZ; 0.80% Tris NTA, Exp. 3 (statistical analysis)
  Differential PCC: 0.66
FtsZ; 0.80% Tris NTA, n = 3, 3, sd 0.05 (WT), 0.0749 (R286W), p-value 0.13
  Differential PCC, Mean: 0.57
FtsZ; 1.00% Tris NTA, Exp. 1 (statistical analysis)
  Differential PCC: 0.60
FtsZ; 1.00% Tris NTA, Exp. 2 (statistical analysis)
  Differential PCC: 0.56
FtsZ; 1.00% Tris NTA, Exp. 3 (statistical analysis)
  Differential PCC: 0.51
FtsZ; 1.00% Tris NTA, n = 3, 3, sd 0.12 (WT), 0.0377 (R286W), p-value 5.89E-02
  Differential PCC, Mean: 0.56
FtsZ; 2.00% Tris NTA, Exp. 1 (statistical analysis)
  Differential PCC: 0.44
FtsZ; 2.00% Tris NTA, Exp. 2 (statistical analysis)
  Differential PCC: 0.34
FtsZ; 2.00% Tris NTA, Exp. 3 (statistical analysis)
  Differential PCC: 0.36
FtsZ; 2.00% Tris NTA, n = 3, 3, sd 0.0469 (WT), 0.04 (R286W), p-value 2.27E-03
  Differential PCC, Mean: 0.38
FtsZ; […] Tris NTA, Exp. 1 (statistical analysis)
  Differential PCC: 0.34
FtsZ; […] Tris NTA, Exp. 3 (statistical analysis)
  Differential PCC: 0.37
FtsZ; […] Tris NTA, n = 3, 3, sd 0.0371 (WT), 0.02 (R286W), p-value 5.70E-04
  Differential PCC, Mean: 0.36
[1]; 0.1 µM FtsA + FtsN&Z
  Off binding rate, mean: 0.0939 s
[1]; 0.1 µM FtsA + FtsN
  Off binding rate, mean: 0.062 s
[1]; 0.1 µM FtsA + FtsZ
  Off binding rate, mean: 0.204 s
[1]; 0.1µM FtsA alone, Mean, n=6
  Off binding rate: 0.3263
[1]; 0.1 µM FtsA alone
  Off binding rate, mean: 0.326 s
[1]; 0.1µM FtsA alone, replicate Exp.1
  Off binding rate: 3.18E-01
[1]; 0.1µM FtsA alone, replicate Exp.2
  Off binding rate: 1.79E-01
[1]; 0.1µM FtsA alone, replicate Exp.3
  Off binding rate: 4.12E-01
[1]; 0.1µM FtsA alone, replicate Exp.4
  Off binding rate: 4.03E-01
[1]; 0.1µM FtsA alone, replicate Exp.5
  Off binding rate: 3.20E-01
[1]; 0.1µM FtsA alone, replicate Exp.6
  Off binding rate: 3.25E-01
[1]; 0.1µM, + FtsN&Z, Mean, n=3
  Off binding rate: 0.0939
[1]; 0.1µM, + FtsN&Z, replicate Exp.1
  Off binding rate: 1.11E-01
[1]; 0.1µM, + FtsN&Z, replicate Exp.2
  Off binding rate: 5.81E-02
[1]; 0.1µM, + FtsN&Z, replicate Exp.3
  Off binding rate: 1.13E-01
[1]; 0.1µM, + FtsN, Mean, n=3
  Off binding rate: 0.0620
[1]; 0.1µM, + FtsN, replicate Exp.1
  Off binding rate: 5.84E-02
[1]; 0.1µM, + FtsN, replicate Exp.2
  Off binding rate: 3.36E-02
[1]; 0.1µM, + FtsN, replicate Exp.3
  Off binding rate: 9.39E-02
[1]; 0.1µM, + FtsZ, Mean, n=4
  Off binding rate: 0.2040
[1]; 0.1µM, + FtsZ, replicate Exp.1
  Off binding rate: 1.08E-01
[1]; 0.1µM, + FtsZ, replicate Exp.2
  Off binding rate: 3.38E-01
[1]; 0.1µM, + FtsZ, replicate Exp.3
  Off binding rate: 3.22E-01
[1]; 0.1µM, + FtsZ, replicate Exp.4
  Off binding rate: 4.74E-02
[1]; 0.2 µM FtsA + FtsN&Z
  Off binding rate, mean: 0.099 s
[1]; 0.2 µM FtsA + FtsN
  Off binding rate, mean: 0.171 s
[1]; 0.2 µM FtsA + FtsZ
  Off binding rate, mean: 0.227 s
[1]; 0.2µM FtsA alone, Mean, n=6
  Off binding rate: 0.2513
[1]; 0.2 µM FtsA alone
  Off binding rate, mean: 0.251 s
[1]; 0.2µM FtsA alone, replicate Exp.1
  Off binding rate: 2.65E-01
[1]; 0.2µM FtsA alone, replicate Exp.2
  Off binding rate: 3.55E-01
[1]; 0.2µM FtsA alone, replicate Exp.3
  Off binding rate: 3.00E-01
[1]; 0.2µM FtsA alone, replicate Exp.4
  Off binding rate: 1.69E-01
[1]; 0.2µM FtsA alone, replicate Exp.5
  Off binding rate: 2.80E-01
[1]; 0.2µM FtsA alone, replicate Exp.6
  Off binding rate: 1.38E-01
[1]; 0.2µM, + FtsN&Z, Mean, n=6
  Off binding rate: 0.0990
[1]; 0.2µM, + FtsN&Z, replicate Exp.1
  Off binding rate: 2.98E-02
[1]; 0.2µM, + FtsN&Z, replicate Exp.2
  Off binding rate: 2.05E-01
[1]; 0.2µM, + FtsN&Z, replicate Exp.3
  Off binding rate: 6.45E-02
[1]; 0.2µM, + FtsN&Z, replicate Exp.4
  Off binding rate: 4.84E-02
[1]; 0.2µM, + FtsN&Z, replicate Exp.5
  Off binding rate: 1.35E-01
[1]; 0.2µM, + FtsN&Z, replicate Exp.6
  Off binding rate: 1.11E-01
[1]; 0.2µM, + FtsN, Mean, n=4
  Off binding rate: 0.1710
[1]; 0.2µM, + FtsN, replicate Exp.1
  Off binding rate: 5.13E-02
[1]; 0.2µM, + FtsN, replicate Exp.2
  Off binding rate: 3.51E-01
[1]; 0.2µM, + FtsN, replicate Exp.3
  Off binding rate: 1.05E-01
[1]; 0.2µM, + FtsN, replicate Exp.4
  Off binding rate: 1.76E-01
[1]; 0.2µM, + FtsZ, Mean, n=6
  Off binding rate: 0.2270
[1]; 0.2µM, + FtsZ, replicate Exp.1
  Off binding rate: 2.24E-01
[1]; 0.2µM, + FtsZ, replicate Exp.2
  Off binding rate: 4.14E-01
[1]; 0.2µM, + FtsZ, replicate Exp.3
  Off binding rate: 9.28E-02
[1]; 0.2µM, + FtsZ, replicate Exp.4
  Off binding rate: 4.05E-01
[1]; 0.2µM, + FtsZ, replicate Exp.5
  Off binding rate: 1.38E-01
[1]; 0.2µM, + FtsZ, replicate Exp.6
  Off binding rate: 8.76E-02
[1]; 0.4 µM FtsA + FtsN&Z
  Off binding rate, mean: 0.101 s
[1]; 0.4 µM FtsA + FtsN
  Off binding rate, mean: 0.18 s
[1]; 0.4 µM FtsA + FtsZ
  Off binding rate, mean: 0.179 s
[1]; 0.4µM FtsA alone, Mean, n=9
  Off binding rate: 0.3738
[1]; 0.4 µM FtsA alone
  Off binding rate, mean: 0.374 s
[1]; 0.4µM FtsA alone, replicate Exp.1
  Off binding rate: 7.99E-01
[1]; 0.4µM FtsA alone, replicate Exp.2
  Off binding rate: 6.65E-01
[1]; 0.4µM FtsA alone, replicate Exp.3
  Off binding rate: 6.54E-01
[1]; 0.4µM FtsA alone, replicate Exp.4
  Off binding rate: 2.78E-01
[1]; 0.4µM FtsA alone, replicate Exp.5
  Off binding rate: 1.57E-01
[1]; 0.4µM FtsA alone, replicate Exp.6
  Off binding rate: 1.25E-01
